We go through one substance from patent US20200223906A1.

Assay [1] concerns the target RSV F protein of subtype A (strain A2) on recombinant mKate-RSV (respiratory syncytial virus subtype A (strain A2)) (UniProt P03420). The experiment in a line: cell-based or functional assay.
In assay [2] the target is human metapneumovirus (HMPV) F protein on GFP-expressing hMPV recombinant virus (NL/1/00, A1 sublineage) (human metapneumovirus). Put plainly: cell-based or functional assay.

MPE8 (antibody): the RSV-A2 IC50 in assay [1] came to 0.04 µg/mL. Moreover, the HMPV-A1 IC50 in assay [2] worked out at 0.07 µg/mL.
